Where no end group is shown, it is not given here.

As a reminder, the Ki is the dissociation constant of the complex between target and ligand, obtained from inhibition or displacement. Read a low Ki as tighter binding. One may read the Kd as the constant that tells how readily two partners part at equilibrium.

Assay [1] concerns the target wild-type rat NK2R receptor of tachykinins (construct pCEP4-NK2R), expressed on HEK 293 cells (rat) (UniProt P16610). In words: displacement of 3H SR 48968 on HEK 293 cells expressing wild-type NK2R, filtration.
Assay [2] has as its target fluorescent receptor NK2R-RF1 (construct pCEP4-NK2R-RF1): EGFP fused between the alpha7 signal peptide and the amino-terminal end of the rat NK2R receptor, expressed on HEK 293 cells (Aequorea victoria; rat) (UniProt P16610). In words: displacement of 3H SR 48968 on HEK 293 cells expressing NK2R-RF1, filtration.
For assay [3] the target is unchanged. As to the kind of experiment: displacement of 3H SR 48968 on HEK 293 cells expressing NK2R-RF1, filtration (FIG. 8b). A general note: Displacement assays read how much labelled ligand stays bound in the presence of the test substance.
Assay [4] has as its target T1, wild-type rat NK2R receptor of tachykinins (construct pCEP4-NK2R), expressed on HEK 293 cells (rat, UniProt P16610 1-390).
T1 construct: whole, on cells; Stably expressed in HEK 293 cells; also called NK2R-WT; NK2R WT
T1 sequence (looked up): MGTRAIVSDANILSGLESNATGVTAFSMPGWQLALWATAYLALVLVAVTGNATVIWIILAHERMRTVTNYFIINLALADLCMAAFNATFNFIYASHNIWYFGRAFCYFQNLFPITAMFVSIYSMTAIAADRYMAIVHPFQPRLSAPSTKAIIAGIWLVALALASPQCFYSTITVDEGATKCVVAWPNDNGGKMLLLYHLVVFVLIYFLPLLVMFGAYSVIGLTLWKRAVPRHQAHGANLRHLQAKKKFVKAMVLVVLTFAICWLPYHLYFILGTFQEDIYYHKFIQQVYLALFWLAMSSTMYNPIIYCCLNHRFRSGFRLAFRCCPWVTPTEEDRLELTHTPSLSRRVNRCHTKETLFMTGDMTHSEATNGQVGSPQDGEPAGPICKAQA
In words: displacement of 3H SR 48968 on HEK 293 cells expressing NK2R-WT, filtration (FIG. 8a). The procedure:
The incubation is carried out for one hour at 4° C. Filtration is carried out at the end of incubation, as described in 3b).

Assay [5] concerns the target fluorescent receptor NK2R-RF1 (construct pCEP4-NK2R-RF1): EGFP fused between the alpha7 signal peptide and the amino-terminal end of the rat NK2R receptor, expressed on HEK 293 cells (Aequorea victoria; rat) (UniProt P16610). In words: FRET saturation: amplitude of EGFP fluorescence extinction against NKA BO I concentration, cells expressing NK2R-RF1 (FIG. 13).
The target is the same in assay [6]. In words: FRET saturation on cells expressing NK2R-RF1, 0 to 256 nM NKA BO I.

For the molecule MEN 10,376 (Bachem) (peptide), the inhibitory constant (Ki) in assay [1] stood at 53 nM; in assay [2], 61 nM.
In turn, “neurokinin A (from UniProt P20366 98-107) (peptide)” gave a Ki in assay [3] of 2.1 nM. This counts as single-digit nanomolar.

B1: NKA BO I (neurokinin A labeled with BODIPY 530/550 IA) (peptide, UniProt P20366 98-107, looked up)
peptide: HKTDSFVGLM
modifications: also: BODIPY 530/550 IA label, site not given here
notes: mature; HPLC-purified reaction product of NKA with BODIPY 530/550 IA; also called NKA BO 1; NKA-Bodipy derivative
As to B1, the Ki in assay [4] and in assay [3] was 16.1 nM each time. For the same molecule, the Kd in assay [5] is 24 nM; in assay [6], 20 to 30 nM.
